How the values were obtained:
PIV1051 = target: T1, PIV1051 (PIV1); assay: BLI, no stress;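 further: binding of thermally stressed PIV1 F mutant supernatant to mAb on AHC biosensors for 5 min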
T1 construct: Q92C-G134C, A466V, S473V, A480V
Method: (§1) The OCTET HTX (Sartorius, Gottingen, Germany) instrument was used to evaluate the expression and conformational integrity for each mutant. All measurements were conducted at 30° C. temperature in 96-well black plates (Corning, Corning, NY) with a final volume of 240 μL per well at a constant agitation rate of 1000 RPM.
(§2) Conformation integrity of PIV1 F protein mutants were evaluated by a thermal stress experiment. Crude cell culture supernatants were normalized based on the results of the titer quantitation and then incubated for 1 hour at room temperature and two higher temperatures. For the initial testing of PIV1 mutants, the two temperatures were 50° C. and 53° C. […] Anti-Human IgG Fc Capture (AHC) biosensors were first equilibrated in PB for before being dipped into more PB to establish the initial baseline. […] The mAb-bound biosensors were then dipped into the thermal stresses cell culture supernatants for 5 minutes.

PIV1052 = target: T2, PIV1052 (PIV1); assay: BLI, no stress;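 further: binding of thermally stressed PIV1 F mutant supernatant to mAb on AHC biosensors for 5 min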
T2 construct: Q92C-G134C, A466V, S473V; also called PV1052
Method: as §1, §2

PIV1014 [1] = target: T3, PIV1014 (PIV1); assay: BLI, 50C stress;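 further: binding of thermally stressed PIV1 F mutant supernatant to mAb on AHC biosensors for 5 min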
T3 construct: Q92C-G134C
Method: (§3) All measurements were conducted at 30° C. temperature in 96-well black plates (Corning, Corning, NY) with a final volume of 240 μL per well at a constant agitation rate of 1000 RPM.
as §2

PIV1023 [2] = target: T4, PIV1023 (PIV1); assay: BLI, 50C stress;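 further: binding of thermally stressed PIV1 F mutant supernatant to mAb on AHC biosensors for 5 min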
T4 construct: A466L
Method: as §3, §2

PIV1024 [3] = target: T5, PIV1024 (PIV1); assay: BLI, 50C stress
T5 construct: A466V
Method: as §3, §2

PIV1026 [4] = target: T6, PIV1026 (PIV1); assay: BLI, 50C stress
T6 construct: S473V
Method: as §3, §2

PIV1027 [5] = target: T7, PIV1027 (PIV1); assay: BLI, 50C stress
T7 construct: S473L
Method: as §3, §2

PIV1028 [6] = target: T8, PIV1028 (PIV1); assay: BLI, 50C stress
T8 construct: A480L
Method: as §3, §2

PIV1030 [7] = target: T9, PIV1030 (PIV1); assay: BLI, 50C stress
T9 construct: A466L, S473A
Method: as §3, §2

PIV1031 [8] = target: T10, PIV1031 (PIV1); assay: BLI, 50C stress
T10 construct: A466L, S473L
Method: as §3, §2

PIV1033 [9] = target: T11, PIV1033 (PIV1); assay: BLI, 50C stress
T11 construct: T198A
Method: as §3, §2

PIV1036 [10] = target: T12, PIV1036 (PIV1); assay: BLI, 50C stress
T12 construct: G134A
Method: as §3, §2

PIV1039 [11] = target: T13, PIV1039 (PIV1); assay: BLI, 50C stress
T13 construct: A128P
Method: as §3, §2

PIV1014 [12] = target: T3, PIV1014; assay: BLI, 53C stress
Method: as §3, §2

PIV1023 [13] = target: T4, PIV1023; assay: BLI, 53C stress
Method: as §3, §2

PIV1024 [14] = target: T5, PIV1024; assay: BLI, 53C stress
Method: as §3, §2

PIV1026 [15] = target: T6, PIV1026; assay: BLI, 53C stress
Method: as §3, §2

PIV1027 [16] = target: T7, PIV1027; assay: BLI, 53C stress
Method: as §3, §2

PIV1028 [17] = target: T8, PIV1028; assay: BLI, 53C stress
Method: as §3, §2

PIV1030 [18] = target: T9, PIV1030; assay: BLI, 53C stress
Method: as §3, §2

PIV1031 [19] = target: T10, PIV1031; assay: BLI, 53C stress
Method: as §3, §2

PIV1033 [20] = target: T11, PIV1033; assay: BLI, 53C stress
Method: as §3, §2

PIV1036 [21] = target: T12, PIV1036; assay: BLI, 53C stress
Method: as §3, §2

PIV1039 [22] = target: T13, PIV1039; assay: BLI, 53C stress
Method: as §3, §2

hMPV B F WT Control = hMPV B F WT Control (hMPV B, UniProt Q6WB98 19-102); assay: BLI, no stress
hMPV118 = target: T14, hMPV118 (hMPV B, UniProt Q6WB98 19-102); assay: BLI, no stress
T14 construct: T49I, T150C-R156C

hMPV119 = target: T15, hMPV119 (hMPV B, UniProt Q6WB98 19-102); assay: BLI, no stress
T15 construct: T49I, T150C-R156C, A459P

hMPV122 = target: T16, hMPV122 (hMPV B, UniProt Q6WB98 19-102); assay: BLI, no stress
T16 construct: A140C-S149C, T411C-Q434C, A459P

hMPV125 = target: T17, hMPV125 (hMPV B, UniProt Q6WB98 19-102); assay: BLI, no stress
T17 construct: L141C-A161C, G239A, T411C-Q434C

hMPV126 = target: T18, hMPV126 (hMPV B, UniProt Q6WB98 19-102); assay: BLI, no stress
T18 construct: T49I, T150C-R156C, G239A, A459P

hMPV127 = target: T19, hMPV127 (hMPV B, UniProt Q6WB98 19-102); assay: BLI, no stress
T19 construct: A140C-S149C, G239A, T411C-Q434C, A459P

hMPV129 = target: T20, hMPV129 (hMPV B, UniProt Q6WB98 19-102); assay: BLI, no stress
T20 construct: T49I, A140C-S149C, G239A, T365I, T411C-Q434C, A459P

hMPV130 = target: T21, hMPV130 (hMPV B, UniProt Q6WB98 19-102); assay: BLI, no stress
T21 construct: L141C-A161C, G239A, T411C-Q434C, A459P

hMPV132 = target: T22, hMPV132 (hMPV B, UniProt Q6WB98 19-102); assay: BLI, no stress
T22 construct: L141C-A161C, S149T, G239A, T411C-Q434C, A459P

hMPV133 = target: T23, hMPV133 (hMPV B, UniProt Q6WB98 19-102); assay: BLI, no stress
T23 construct: T49I, L141C-A161C, S149T, G239A, T411C-Q434C, A459P

hMPV135 = target: T24, hMPV135 (hMPV B, UniProt Q6WB98 19-102); assay: BLI, no stress
T24 construct: T49I, S149T, A459P

hMPV138 = target: T25, hMPV138 (hMPV B, UniProt Q6WB98 19-102); assay: BLI, no stress
T25 construct: T49I, A140C-S149C, A459P

hMPV139 = target: T26, hMPV139 (hMPV B, UniProt Q6WB98 19-102); assay: BLI, no stress
T26 construct: T49I, L141C-A161C, T411C-Q434C

hMPV144 = target: T27, hMPV144 (hMPV B, UniProt Q6WB98 19-102); assay: BLI, no stress
T27 construct: T49I, L141C-A161C, S149T, A459P

B1: PIV1-8 mAb (antibody, V domains shown)
VH: QVQLVQSGAEVKKPGSSVKVSCEASGGTFSNYVISWVRQAPGQGLEWMGGIIPVFATAKYAQKFQGRVTIIADQSTNTAYLELSSLRSDDTAVYFCASVDSGGTWWDAFAIWGQGTMVTVSS
VL: QAVVTQPRSVSGSPGQAVTISCTGTSSDVGGYNYVSWYQHHPGKAPKLIIYDVTKRPSGVPDRFSGSKSGNTASLTISGLQTEYEADYYCCSYAGSYTLVFGGGTKLTVLG
notes: human IgG1; also called hPIV1-8 mAb; hPIV1-8
Response Shift (PIV1051): 0.725 nm
Response Shift (PIV1052): 0.67 nm
Response Shift (PIV1014 [1]): 0.011 nm
Response Shift (PIV1023 [2]): 0.018 nm
Response Shift (PIV1024 [3]): 0.022 nm
Response Shift (PIV1026 [4]): -0.022 nm
Response Shift (PIV1027 [5]): -0.022 nm
Response Shift (PIV1028 [6]): -0.018 nm
Response Shift (PIV1030 [7]): -0.031 nm
Response Shift (PIV1031 [8]): 0.72 nm
Response Shift (PIV1033 [9]): -0.027 nm
Response Shift (PIV1036 [10]): 0.007 nm
Response Shift (PIV1039 [11]): -0.039 nm
Response Shift (PIV1014 [12]): 0.009 nm
Response Shift (PIV1023 [13]): -0.001 nm
Response Shift (PIV1024 [14]): -0.016 nm
Response Shift (PIV1026 [15]): -0.039 nm
Response Shift (PIV1027 [16]): -0.02 nm
Response Shift (PIV1028 [17]): -0.052 nm
Response Shift (PIV1030 [18]): -0.046 nm
Response Shift (PIV1031 [19]): 0.489 nm
Response Shift (PIV1033 [20]): -0.073 nm
Response Shift (PIV1036 [21]): -0.042 nm
Response Shift (PIV1039 [22]): -0.055 nm

B2: hMPV-2 mAb (antibody, V domains shown)
VH: QVQLQQSGAEVKKPGASVKVSCKASGYTFTSYGISWVRQAPGQGLEWMGWISGYNGNTNYAQTFQGTFTMTTDTSTSTAYMELRRLRSGDTAVYYCARDRYYASGSYNGMDVWGQGTTVTVSS
VL: QSALTQPPSASGAPGQRVTVSCSGSSSNVGSSSVYWYQQLPGTAPKLLIYRNNQRPSGVPDRFSGSKSGTSASLAISGLRSEDEADYYCAAWDDSLSGWVFGGGTKLTVLG
notes: human IgG1
Response Shift (hMPV B F WT Control): 0.82 nm
Response Shift (hMPV118): 0.844 nm
Response Shift (hMPV119): 0.864 nm
Response Shift (hMPV122): 0.73 nm
Response Shift (hMPV125): 0.847 nm
Response Shift (hMPV126): 0.773 nm
Response Shift (hMPV127): 0.719 nm
Response Shift (hMPV129): 0.687 nm
Response Shift (hMPV130): 0.71 nm
Response Shift (hMPV132): 0.704 nm
Response Shift (hMPV133): 0.677 nm
Response Shift (hMPV135): 0.73 nm
Response Shift (hMPV138): 0.681 nm
Response Shift (hMPV139): 0.699 nm
Response Shift (hMPV144): 0.712 nm

From patent publication US20240252614A1 (Pfizer, published 2024)
